Molecular target: Recombinant human HER2 (human) (UniProt P04626)
Experiment: ELISA; recombinant HER2 (50 ng/well) coated in PBS pH 7.4; scFv or conjugate 250 to 0.005 nM, 4-fold dilutions in 5% skim milk in PBST, room temperature; detected by rabbit anti-His-tag antibody and HRP-linked anti-rabbit IgG

## 4D5scFv-G178-HSA (from UniProt P02768 25-609)
  EC50: 1.47 nM
